In the test the target is T1, CIPK1-His (Arabidopsis, UniProt Q8RWC9 1-444).
T1 construct: source: E. coli BL21 (Rosetta), purified; not shown: 6xHis, C-terminal, kept
T1 sequence (looked up): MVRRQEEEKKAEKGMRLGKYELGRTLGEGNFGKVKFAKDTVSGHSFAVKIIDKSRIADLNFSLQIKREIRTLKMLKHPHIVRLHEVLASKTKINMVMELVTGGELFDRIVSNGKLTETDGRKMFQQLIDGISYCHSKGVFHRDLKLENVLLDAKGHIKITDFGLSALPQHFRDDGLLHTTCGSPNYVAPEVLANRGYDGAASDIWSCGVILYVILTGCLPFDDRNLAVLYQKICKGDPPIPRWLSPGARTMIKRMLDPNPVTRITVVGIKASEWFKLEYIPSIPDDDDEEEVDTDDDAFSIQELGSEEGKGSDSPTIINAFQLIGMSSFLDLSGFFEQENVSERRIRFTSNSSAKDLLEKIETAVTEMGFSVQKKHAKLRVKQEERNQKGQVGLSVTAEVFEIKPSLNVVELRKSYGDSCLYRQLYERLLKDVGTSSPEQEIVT
The test can be described thus: pull-down; 5 ug GST-PYR1/PYLs on GST resin at 4 C for 2 h, then 2 ug CIPK1-His for 2 h in pull-down buffer; 6 washes; blots with anti-His and anti-GST. The settings on record: both partners purified.

B1: GST-PYL3 (receptor, Arabidopsis, UniProt Q9SSM7 1-209, looked up)
chain: MNLAPIHDPSSSSTTTTSSSTPYGLTKDEFSTLDSIIRTHHTFPRSPNTCTSLIAHRVDAPAHAIWRFVRDFANPNKYKHFIKSCTIRVNGNGIKEIKVGTIREVSVVSGLPASTSVEILEVLDEEKRILSFRVLGGEHRLNNYRSVTSVNEFVVLEKDKKKRVYSVVLESYIVDIPQGNTEEDTRMFVDTVVKSNLQNLAVISTASPT
notes: PYL3, ABA receptor, Arabidopsis; source: recombinant protein, purified; not shown: GST, N-terminal, kept
In the case of B1, the binding result is “binds”.

B2: GST-PYL1 (receptor, Arabidopsis, UniProt Q8VZS8 1-221, looked up)
chain: MANSESSSSPVNEEENSQRISTLHHQTMPSDLTQDEFTQLSQSIAEFHTYQLGNGRCSSLLAQRIHAPPETVWSVVRRFDRPQIYKHFIKSCNVSEDFEMRVGCTRDVNVISGLPANTSRERLDLLDDDRRVTGFSITGGEHRLRNYKSVTTVHRFEKEEEEERIWTVVLESYVVDVPEGNSEEDTRLFADTVIRLNLQKLASITEAMNRNNNNNNSSQVR
notes: PYL1, ABA receptor, Arabidopsis; source: recombinant protein, purified; not shown: GST, N-terminal, kept
Regarding B2, the binding result is “binds”.

B3: GST-PYL5 (receptor, Arabidopsis, UniProt Q9FLB1 1-203, looked up)
chain: MRSPVQLQHGSDATNGFHTLQPHDQTDGPIKRVCLTRGMHVPEHVAMHHTHDVGPDQCCSSVVQMIHAPPESVWALVRRFDNPKVYKNFIRQCRIVQGDGLHVGDLREVMVVSGLPAVSSTERLEILDEERHVISFSVVGGDHRLKNYRSVTTLHASDDEGTVVVESYIVDVPPGNTEEETLSFVDTIVRCNLQSLARSTNRQ
notes: PYL5, ABA receptor, Arabidopsis; source: recombinant protein, purified; not shown: GST, N-terminal, kept
In the case of B3, the binding result is “binds”.

B4: GST-PYR1 (receptor, Arabidopsis, UniProt O49686 1-191, looked up)
chain: MPSELTPEERSELKNSIAEFHTYQLDPGSCSSLHAQRIHAPPELVWSIVRRFDKPQTYKHFIKSCSVEQNFEMRVGCTRDVIVISGLPANTSTERLDILDDERRVTGFSIIGGEHRLTNYKSVTTVHRFEKENRIWTVVLESYVVDMPEGNSEDDTRMFADTVVKLNLQKLATVAEAMARNSGDGSGSQVT
notes: PYR1, ABA receptor, Arabidopsis; source: recombinant protein, purified; not shown: GST, N-terminal, kept
With B4, the binding result was “binds”.

B5: GST-PYL6 (receptor, Arabidopsis, UniProt Q8S8E3 1-215, looked up)
chain: MPTSIQFQRSSTAAEAANATVRNYPHHHQKQVQKVSLTRGMADVPEHVELSHTHVVGPSQCFSVVVQDVEAPVSTVWSILSRFEHPQAYKHFVKSCHVVIGDGREVGSVREVRVVSGLPAAFSLERLEIMDDDRHVISFSVVGGDHRLMNYKSVTTVHESEEDSDGKKRTRVVESYVVDVPAGNDKEETCSFADTIVRCNLQSLAKLAENTSKFS
notes: PYL6, ABA receptor, Arabidopsis; source: recombinant protein, purified; not shown: GST, N-terminal, kept
Regarding B5, the binding result is given as “binds”.

B6: GST-PYL4 (receptor, Arabidopsis, UniProt O80920 1-207, looked up)
chain: MLAVHRPSSAVSDGDSVQIPMMIASFQKRFPSLSRDSTAARFHTHEVGPNQCCSAVIQEISAPISTVWSVVRRFDNPQAYKHFLKSCSVIGGDGDNVGSLRQVHVVSGLPAASSTERLDILDDERHVISFSVVGGDHRLSNYRSVTTLHPSPISGTVVVESYVVDVPPGNTKEETCDFVDVIVRCNLQSLAKIAENTAAESKKKMSL
notes: PYL4, ABA receptor, Arabidopsis; source: recombinant protein, purified; not shown: GST, N-terminal, kept
On to B6, for which the binding result was “binds”.

B7: GST-PYL2 (receptor, Arabidopsis, UniProt O80992 1-190, looked up)
chain: MSSSPAVKGLTDEEQKTLEPVIKTYHQFEPDPTTCTSLITQRIHAPASVVWPLIRRFDNPERYKHFVKRCRLISGDGDVGSVREVTVISGLPASTSTERLEFVDDDHRVLSFRVVGGEHRLKNYKSVTSVNEFLNQDSGKVYTVVLESYTVDIPEGNTEEDTKMFVDTVVKLNLQKLGVAATSAPMHDDE
notes: PYL2, ABA receptor, Arabidopsis; source: recombinant protein, purified; not shown: GST, N-terminal, kept
For B7, the binding result is given as “binds”.

The record behind these values is paper PMC10514306, “The CBL1/9-CIPK1 calcium sensor negatively regulates drought stress by phosphorylating the PYLs ABA receptor” (Nature Communications, 2023).
